This experiment addresses MnSOD-3[Q142H], site-directed mutant of the manganese superoxide dismutase SOD-3 of C. elegans (C. elegans) (UniProt P41977). As to the kind of experiment: crystal structure.

Broadly, the stoichiometry N is a count of units in the complex or per binding partner.

As for “MnSOD-3[Q142H], site-directed mutant of the manganese superoxide dismutase SOD-3 of C. elegans (from UniProt P41977 25-218) (enzyme)”, the stoichiometry N was found to be 4.

Values taken from PMC5969255.
